{"source": "paper PMC13155533", "about": "“The secreted protein PCYOX1L controls the surface expression of acid-sensing ion channel 1a” (Science Advances, 2025)", "key": {"[1]": {"target": "the molecule itself", "assay": "native gel or EMSA; high-resolution clear native PAGE (4 to 16%) of GFP-tagged proteins from 1% digitonin lysates of transfected HEK cells, GFP fluorescence scan; without coexpressed PCYOX1L"}, "[2]": {"target": "the molecule itself", "assay": "native gel or EMSA; high-resolution clear native PAGE (4 to 16%) of GFP-tagged proteins from 1% digitonin lysates of transfected HEK cells, GFP fluorescence scan; ASIC1a-GFP coexpressed with PCYOX1L-GFP"}}}
{"protein": "rat ASIC2a-GFP (natural protein, UniProt Q62962-1 1-512, looked up, ASIC2a, rat, in pEGFP-N1; In the functional row the untagged rat ASIC2a (pcDNA3.1) was used; source: HEK cells, transfected, in digitonin lysate) MDLKESPSEGSLQPSSIQIFANTSTLHGIRHIFVYGPLTIRRVLWAVAFVGSLGLLLVESSERVSYYFSYQHVTKVDEVVAQSLVFPAVTLCNLNGFRFSRLTTNDLYHAGELLALLDVNLQIPDPHLADPTVLEALRQKANFKHYKPKQFSMLEFLHRVGHDLKDMMLYCKFKGQECGHQDFTTVFTKYGKCYMFNSGEDGKPLLTTVKGGTGNGLEIMLDIQQDEYLPIWGETEETTFEAGVKVQIHSQSEPPFIQELGFGVAPGFQTFVATQEQRLTYLPPPWGECRSSEMGLDFFPVYSITACRIDCETRYIVENCNCRMVHMPGDAPFCTPEQHKECAEPALGLLAEKDSNYCLCRTPCNLTRYNKELSMVKIPSKTSAKYLEKKFNKSEKYISENILVLDIFFEALNYETIEQKKAYEVAALLGDIGGQMGLFIGASLLTILELFDYIYELIKEKLLDLLGKEEEEGSHDENMSTCDTMPNHSETISHTVNVPLQTALGTLEEIAC", "values": [{"measurement": "stoichiometry N", "setting": "[1]", "result": 3}]}
{"protein": "rat ASIC1a-GFP (natural protein, UniProt P55926-1 1-526, looked up, ASIC1a, rat, in pEGFP-N1; the methods say that rat ASIC1a was used for coexpression with PCYOX1L in HEK293 cells; The vector pEGFP-N1 would put GFP at the C-terminus; source: HEK cells, transfected, in digitonin lysate) MELKTEEEEVGGVQPVSIQAFASSSTLHGLAHIFSYERLSLKRALWALCFLGSLAVLLCVCTERVQYYFCYHHVTKLDEVAASQLTFPAVTLCNLNEFRFSQVSKNDLYHAGELLALLNNRYEIPDTQMADEKQLEILQDKANFRSFKPKPFNMREFYDRAGHDIRDMLLSCHFRGEACSAEDFKVVFTRYGKCYTFNSGQDGRPRLKTMKGGTGNGLEIMLDIQQDEYLPVWGETDETSFEAGIKVQIHSQDEPPFIDQLGFGVAPGFQTFVSCQEQRLIYLPSPWGTCNAVTMDSDFFDSYSITACRIDCETRYLVENCNCRMVHMPGDAPYCTPEQYKECADPALDFLVEKDQEYCVCEMPCNLTRYGKELSMVKIPSKASAKYLAKKFNKSEQYIGENILVLDIFFEVLNYETIEQKKAYEIAGLLGDIGGQMGLFIGASILTVLELFDYAYEVIKHRLCRRGKCQKEAKRSSADKGVALSLDDVKRHNPCESLRGHPAGMTYAANILPHHPARGTFEDFTC", "values": [{"measurement": "stoichiometry N", "setting": "[2]", "result": 3}]}
